B1: Pistol ribozyme (parent)
chain: GGGUCGUUGUUCCAUAAUCGCGUGGAUAUGGCACGCAAGUUUCUACCGGGCACCGUAAAUGUCCGACUGGAGCCGUUCGGGCGGCUAUAAACAGACCUCAGGCCCGAAGCGUGGCGGCACCUGCCGCCGGUGGUAAAAAAGAUCGGAAGAGCACACGUCU

Variants of: B1
Test: aptazyme ON/OFF ratio, guanine; higher = stronger switching; co-transcriptional cleavage with and without guanine

Variant	aptazyme ON/OFF ratio
U7A G9U U10C U11G C13A	1.13
U7A G9U U10C U11G C13U	1.2
U7A G9U U10C U11G C13G	1.09
U7A U8A G9A	1.87
U7A G9U U10A C12G C13G	1.26
U7A G9U U10A C12G C13A	1.25
U7A G9U U10A C12G C13U	1.11
U7A G9U U11G C12U C13G	1.3
U7A G9U U11G C12U C13A	1.35
U7A G9U U11G C12U C13U	1.08
U7A G9U U11C C12U C13U	1.26
U7A G9U U11C C12U C13G	1.1
U7A G9U U11C C12U C13A	1.2
U7A G9U U10C C12A C13G	1.14
U7A G9U U10C C12A C13U	1.16
U7A G9U U10C C12A C13A	1.21
U7A G9U U10C U11C C12A C13U	1.07
U7A G9U U10C U11C C12A C13A	1.03
U7A G9U U10C U11C C12A C13G	1.06
U7A G9C U11C C12U C13U	1.16
U7A G9C U11C C12U C13G	1.12
U7A G9C U11C C12U C13A	1.04
U7A U8A G9A U10A C12G	1.24
U7A U8A G9A U10A C12A	1.28

Variant	aptazyme ON/OFF ratio
U7A U8A G9A U10A C12U	1.23
U7A G9U U11A C12U	1.34
U7A G9U U11A C12A	1.28
U7A G9U U11A C12G	1.35
U7A G9C U11C C13U	1.02
U7A G9C U11C C13A	1.04
U7A G9C U11C C13G	1.04
U7A G9U U10C	2.35
U7A G9U U10A	1.4
U7A G9U U10G	1.75
U7A G9U U10G C13G	1.14
U7A G9U U10G C13A	1.33
U7A G9U U10G C13U	1.54
U7A U8A G9A U10A	1.46
U7A G9U U10C U11G C12U C13U	1.27
U7A G9U U10C U11G C12U C13G	1.12
U7A G9U U10C U11G C12U C13A	1.15
U7A G9U U10A U11G	1.31
U7A G9U U10A U11C	1.02
U7A G9U U10A U11A	1.43
U7A U8A G9A U10A C13A	1.12
U7A G9U U10G U11G C13G	1.17
U7A G9U U10G U11G C13A	1.22
U7A G9U U10G U11G C13U	1.11

Variant	aptazyme ON/OFF ratio
U7A G9U U10G U11A C12U C13A	1.16
U7A G9U U10G U11A C12U C13G	1.16
U7A G9U U10G U11A C12U C13U	1.26
U7A G9U U10G U11G C12A C13U	1.21
U7A G9U U10G U11G C12A C13A	1.11
U7A G9U U10G U11G C12A C13G	1.12
U7A G9U U11G C12G C13A	1.26
U7A G9U U11G C12G C13U	1.14
U7A G9U U11G C12G C13G	1.32
U7A G9U U10A U11A C12A C13A	1.1
U7A G9U U10A U11A C12A C13G	1.14
U7A G9U U10A U11A C12A C13U	1.3
U7A G9U C12G	1.39
U7A G9U C12A	0.896
U7A G9U C12U	1.34
U7A G9U U11G	1.36
U7A G9U U11C	1.15
U7A G9U U11A	1.27
U7A G9U U10G C12U C13G	1.23
U7A G9U U10G C12U C13U	1.87
U7A G9U U10G C12U C13A	1.32
U7A G9U U10G U11A C12G	1.33
U7A G9U U10G U11A C12U	1.06
U7A G9U U10G U11A C12A	1.2

Variant	aptazyme ON/OFF ratio
U7A G9U U10C U11A C12U C13U	1.22
U7A G9U U10C U11A C12U C13G	1.2
U7A G9U U10C U11A C12U C13A	1.23
U7A G9U U10G U11G	1.1
U7A G9U U10G U11C	1.06
U7A G9U U10G U11A	1.08
U7A G9U U10G C12U	1.43
U7A G9U U10G C12G	1.13
U7A G9U U10G C12A	1.15
U7A G9U U10C U11G C12A C13A	1.05
U7A G9U U10C U11G C12A C13G	1.2
U7A G9U U10C U11G C12A C13U	1.11
U7A G9C U11C C12A C13U	1.08
U7A G9C U11C C12A C13G	1.05
U7A G9C U11C C12A C13A	1.06
U7A G9U C13A	1.29
U7A G9U C13U	1.35
U7A G9U C13G	1.05
U7A G9U U10A C12U C13A	1.29
U7A G9U U10A C12U C13U	1.17
U7A G9U U10A C12U C13G	1.13
U7A G9C U11C C12G C13U	1.09
U7A G9C U11C C12G C13G	1.09
U7A G9C U11C C12G C13A	1.07

Variant	aptazyme ON/OFF ratio
U7A G9U U10C U11A C12G	1.23
U7A G9U U10C U11A C12A	1.15
U7A G9U U10C U11A C12U	1.23
U7A G9U U10G U11G C12G	1.43
U7A G9U U10G U11G C12U	1.16
U7A G9U U10G U11G C12A	1.13
U7A G9U C12A C13G	1.21
U7A G9U C12A C13U	1.28
U7A G9U C12A C13A	1.27
U7A U8A	2.94
U7A U8A G9A C12U C13A	1.11
U7A U8A G9A C12U C13G	1.12
U7A U8A G9A C12U C13U	1.17
U7A G9U U10G U11G C12G C13U	1.45
U7A G9U U10G U11G C12G C13A	1.23
U7A G9U U10G U11G C12G C13G	1.4
U7A G9U	1.86
U7A G9U U10G U11A C13A	1.09
U7A G9U U10G U11A C13U	1.05
U7A G9U U10G U11A C13G	1.08
U7A G9U U11C C13G	1.08
U7A G9U U11C C13A	1.15
U7A G9U U11C C13U	1.12
U7A G9U U10C C12U C13A	1.14

Variant	aptazyme ON/OFF ratio
U7A G9U U10C C12U C13G	1.07
U7A G9U U10C C12U C13U	1.2
U7A G9U U10G U11C C12U C13G	1.19
U7A G9U U10G U11C C12U C13U	1.22
U7A G9U U10G U11C C12U C13A	1.29
U7A G9U U11C C12A C13U	1.24
U7A G9U U11C C12A C13G	1.16
U7A G9U U11C C12A C13A	1.24
U7A U8A G9A U10A C12A C13G	1.23
U7A U8A G9A U10A C12A C13A	1.11
U7A U8A G9A U10A C12A C13U	1.09
U7A G9U U11G C12A C13U	1.22
U7A G9U U11G C12A C13G	1.36
U7A G9U U11G C12A C13A	1.18
U7A G9U U10G U11A C12A C13U	1.18
U7A G9U U10G U11A C12A C13A	1.14
U7A G9U U10G U11A C12A C13G	1.17
U7A G9U U10G U11A C12G C13G	1.21
U7A G9U U10G U11A C12G C13A	1.41
U7A G9U U10G U11A C12G C13U	1.31
U7A G9U U10C U11G	1.32
U7A G9U U10C U11C	1.07
U7A G9U U10C U11A	1.31
U7A G9U U10A U11G C13G	1.07

Variant	aptazyme ON/OFF ratio
U7A G9U U10A U11G C13U	1.21
U7A G9U U10A U11G C13A	1.11
U7A G9U U11A C13A	1.12
U7A G9U U11A C13G	1.08
U7A G9U U11A C13U	1.1
U7A G9U U10A C13G	1.05
U7A G9U U10A C13U	1.35
U7A G9U U10A C13A	1.08
U7A G9U U10C C12G C13G	1.29
U7A G9U U10C C12G C13A	1.07
U7A G9U U10C C12G C13U	1.4
U7A G9U U11A C12U C13A	1.41
U7A G9U U11A C12U C13U	1.22
U7A G9U U11A C12U C13G	1.28
U7A G9C U11G C12G C13G	1.14
U7A G9C U11G C12G C13U	1.12
U7A G9C U11G C12G C13A	1.16
U7A G9U U10A U11A C12G C13G	1.25
U7A G9U U10A U11A C12G C13A	1.11
U7A G9U U10A U11A C12G C13U	1.19
U7A G9C U11G	1.41
U7A G9C U11C	1.07
U7A G9U U10C U11A C12A C13U	1.21
